± gives the uncertainty stated by the source.
assay: amyloid nucleation score (Sup35N fusion, yeast selection) (log enrichment); library NNK3; higher = more nucleation; inactive = no reads after selection
Summary of the method: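 Growth for 7 days at 30°C on medium lacking adenine and uracil followed a 24-hour induction with 100 μM copper sulfate of psi-negative yeast expressing peptides of 20 random codons fused to Sup35N. Input and output plasmid inserts were sequenced with Illumina, and sequences with under 100 input reads were excluded. Nucleation score is the DiMSum log enrichment of output over input reads, centred on the mode score of non-aggregating sequences.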

Amyloid nucleation score, 1.59 ± 0.094:
ENSSLFFLRDCELWWNVRTR

Amyloid nucleation score, 0.397 ± 0.75:
FDIFQGDINLHFLDVNITR

Amyloid nucleation score, -0.221 ± 0.46:
FDLWFIRIGV

Amyloid nucleation score, 1.34 ± 0.1:
ELSACCYAMSWMVDCVRASL

Amyloid nucleation score, 0.53 ± 0.38:
FCRPNSWI

Amyloid nucleation score, 1.23 ± 0.14:
EGFYTFALGRICGFWSYNFC

Amyloid nucleation score, 0.263 ± 0.46:
EGWIRVFTEFNFSS

Amyloid nucleation score, 2.13 ± 0.093:
EGGMTTFYFC

Amyloid nucleation score, 0.631 ± 0.34:
ERNFPGLFIQLVHLQPEARM

Amyloid nucleation score, 0.177 ± 0.38:
FECKLNRGWSKQARWLNKLY

Amyloid nucleation score, -0.124 ± 0.82:
DYITYVYYVSVRF

Amyloid nucleation score, 0.534 ± 0.15:
EWKWQSKHTITYFLHHCSEH

Amyloid nucleation score, 1.64 ± 0.078:
DRTMLFVTCFNFRRSS

Amyloid nucleation score, 1.77 ± 0.085:
DSIVICQFIFDIKFLDKRKC

Amyloid nucleation score, 0.378 ± 0.41:
FAIFGSWPKFFSCTP

Amyloid nucleation score, 0.447 ± 0.34:
EFGLRWMS

Amyloid nucleation score, 0.104 ± 0.69:
DLRGETNSYSGVCQERK

Amyloid nucleation score, 0.424 ± 0.17:
FCEMHYRLDN

Amyloid nucleation score, -0.72 ± 0.8:
EMDTCIQWLSRVLSGPDSFF

Amyloid nucleation score, 2.43 ± 0.072:
DQSNSSEGILCYNLCVLMTE

Amyloid nucleation score, -0.672 ± 1.8:
ETAGMGTPSVRAHGLASGSV

Amyloid nucleation score, 2.84 ± 0.065:
EFVVCTQCRVCDLIAFLGRN

Amyloid nucleation score, 1.51 ± 0.075:
ETNQSMY

Amyloid nucleation score, inactive:
DLSRTSAVSVRKRVCVFSLH
DLTMVQLMIFMLIIIFFNLL
DLVCTSLTRVAYRELIVWWF
DLVFWTINWSPGAHGTTSSG
DMVLLWQEFDCGKVACLSGG
DMYPFPVCR
DNSFSPLASGLYQLKGVELI
DNSVNKYKKTNVSVISARVR
DPTILSKVMLMEDTVKAREL
DQGLNC
DRAFYYTLKYLRD
DRAMFYDALDNARVISKLRG
DRDMVCMSEL
DRILAYKTYLGNYLLVVLYN
DRRKAEFILTMGPEWYQQLN
DRVGRRLIGLRLAQLLGERF
DSASLGLNLP
DSDVWEPCFELEESKL
DSFNLSDSGWSTLYIRAWDG
DSFRHEGRVWLWYSSTTKRF
DSGSHNDCNGCSNY
DSGVSEQWGGGIELILSWCL
DSICDTCYAVGCLPRVCWVV
DSLKSKFSKVLGPLNRACFY
DSNLVFFGSIFFTVLMWLTK
DSNWRNMRGLHFY
DTDWGRMWQGGSVYGYAFCA
DTLPHAVKLIEKM
DTMNLRWSVWRRHVWCLTGE
DTREN
DVARPCSI
DVGAPCGRFRPHFTNTCLDV
DVGMGRHGKAMK
DVGYSDMLVA
DVLGCPNMEVCWSGFLSQNY
DVTYECGRS
DYALALVFAYCYEDNRMCCP
DYTSYILLS
DYYIAPRVPYHVTTWNKDYL
ECLKVRW
ECSRNAVCF
EDNTKLRSWGELLGVCGKLS
EERIT
EFAEMHTAVLVERISSKVII
EFFSCYTEYPFRPAFLILTT
EFFYINAMPVLYIDPYTSCF
EGRDQDNIPLMNTTGMCFGA
EGSYVYIKDYI
EHFRGRVLVRCLL
EHLRMCNLATIKLILLNVHP
EIAVVRKVLYPYCRYVLICS
EILRMCH
EIRRCTPCLLWVLLLFAINR
EISTVLNLHVRRIAGRFVMK
EKANLLIWDFKKDMLRTVGG
EKLIIELLCTT
EKSCCCSVKI
EKWQKDLSNKHVRNAVVAWS
ELEYAHVIRGKKRCHSSRVV
ELFDERQRLEPI
ELGHSKSTMFNVYYVVWSRC
ELLGGLSLLGMSIFVLLSSL
ELLWGPMGSNWKSLVVYFSH
ELSHQVCYSVGCACETSDGQ
ELVGIIDGCLKNMSSFTMRV
EMEASRG
EMLCVDYWTFGYMVLREVTI
EMLGHHVGSLINRRVITVLR
EPITASYMRILNCACVAYCG
EQVFRYIL
ERDFLF
ERESKNLLQVAYSGYCIVWA
ERFIKN
ERFRSLSGTVEEG
ERGGSTFCSTYFTVLKHRSG
ERLIPLPHISVIS
ERRIKDLTECSNR
ESDAFKLCAYDLNIMNISRF
ESFVGEGDRSWSGHGNFITV
ESGNS
ESRKWAAEGPSFICTCLLSL
ESSLWYI
ESVGLISWFRVPIYSN
ESVRRMLLTLGAHWGSPIHF
ESYTWL
ETLYSCQKGGQRQRKAG
ETPSALCILYVFYCHAYWSH
ETVGAPRSLYYST
ETWEIGRSKMGHRDCFCNYM
ETYWQINSTECKFTSFQRLF
EVCLGVSGRHGANSVVIDWT
EVCWVSEWQLIVMRFSCTWL
EVGLRSLMFHSGQGIRMYNY
EVPLDVAVKGRLW
EVPNFYNLPSWSA
EVRLLGYLVTRNDM
EVYDLESGVSITYMCMCVVL
EVYMFFSCPSSNHVWDSRYV
EWFEKIFIRLTGHRTKFYNS
EYIAI
EYQLYCVYHLYANLDTVVRT
FALNL
FALSVVQG
FANQPGVNYRFTPPSCCFLT
FCALALTQMLINMAH
FCDALMIVTEFGEGLWARWR
FCEFDIDVVLCTHRLYCNRY
FCEFWYLNSRKEATELRP
FCFSSVEKNWLQRVMFLRVS
FCLYTKLNVSIRGISDAYVY
FDFKAYESCCSLLRYLMDPW
FDLEMSSGFPTIELWMR
FDMFVLGMGCGILQYLICFK
FDSDRCIMCLTHLWILWGLR
FDTYTLSNTF
FDVFISENNDAGSHNVEMYQ
FELRVV
FELSYNWYNSNFVRRNVPFP
FERDVFDQYEVVQWGARGDG
FETGCW
FEVWRTGLCDRARGTVNRLK
FEYLLGKLCRLCSNAGRSLS
FFEFSTSVVYN
FFFLLKMRHKPSASANLNSN
FFFRLDCRLYS
FFFTATLNQLSYTYIFSKLA
FFFYFLRFSDFNWFINWLIS

Amyloid nucleation score, -0.236 ± 1:
EFPRGLGSR

Amyloid nucleation score, 0.013 ± 0.32:
EVHLSINEINLYVIEDEGSL

Amyloid nucleation score, 0.016 ± 0.33:
ESTGMPTALYSLAVTVRVDK

Amyloid nucleation score, -0.137 ± 0.52:
EMLSIENGRFTKCKLGECVR

Amyloid nucleation score, -0.526 ± 0.8:
FELSNVHGSLNRAKV

Amyloid nucleation score, -0.886 ± 1:
EIVSWVDHFYWTWTGYHKCW

Amyloid nucleation score, 1.03 ± 0.14:
DRNSYVMCYPWGVVWCNHKS

Amyloid nucleation score, 1.2 ± 0.1:
DRGSMSHILASVSTFNVYIS

Amyloid nucleation score, 0.641 ± 0.41:
FCCHYSKLFRR

Amyloid nucleation score, 2.34 ± 0.083:
FARVRVNISFPISKSFCNIM

— the supplement of paper PMC12042874
